Data on 1 molecule can be found in patent US12692310B2, “ASIC1 channel antagonist antibody” (ShanghaiTech University, priority 2019, dated 2026).

The target of one assay is T1, ΔhASIC1a (Homo sapiens, UniProt P78348).
T1 construct: A truncated ASIC1a (amino acids 13-464; ΔhASIC1a) was overexpressed and purified; made in house; host or cells: HEK293F (BacMam baculovirus)
T1 sequence (P78348 13-464): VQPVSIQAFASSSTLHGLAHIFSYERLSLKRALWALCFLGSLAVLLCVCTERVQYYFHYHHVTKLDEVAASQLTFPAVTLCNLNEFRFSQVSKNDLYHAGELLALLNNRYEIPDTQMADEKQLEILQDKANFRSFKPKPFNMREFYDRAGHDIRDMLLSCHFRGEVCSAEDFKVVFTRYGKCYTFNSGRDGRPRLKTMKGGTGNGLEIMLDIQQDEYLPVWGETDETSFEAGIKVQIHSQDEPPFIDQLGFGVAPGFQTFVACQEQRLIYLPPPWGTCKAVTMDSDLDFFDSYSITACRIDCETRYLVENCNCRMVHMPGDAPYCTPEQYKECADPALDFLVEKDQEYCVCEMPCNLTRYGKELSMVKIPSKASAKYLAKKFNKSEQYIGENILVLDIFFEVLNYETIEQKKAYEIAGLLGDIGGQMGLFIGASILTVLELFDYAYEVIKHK
Nature of the assay: Biacore SPR binding affinity, single cycle kinetic model. Conditions: Biacore T200, purified ΔhASIC1a protein, read-out: apparent KD / binding affinity to ΔhASIC1a. Background: In SPR one partner is held on a chip, and binding of the other changes the refractive index at the surface.

For the next assay, the target named is T2, hASIC1a (Homo sapiens, UniProt P78348).
T2 construct: expressed in transfected cells
T2 sequence (P78348 1-528): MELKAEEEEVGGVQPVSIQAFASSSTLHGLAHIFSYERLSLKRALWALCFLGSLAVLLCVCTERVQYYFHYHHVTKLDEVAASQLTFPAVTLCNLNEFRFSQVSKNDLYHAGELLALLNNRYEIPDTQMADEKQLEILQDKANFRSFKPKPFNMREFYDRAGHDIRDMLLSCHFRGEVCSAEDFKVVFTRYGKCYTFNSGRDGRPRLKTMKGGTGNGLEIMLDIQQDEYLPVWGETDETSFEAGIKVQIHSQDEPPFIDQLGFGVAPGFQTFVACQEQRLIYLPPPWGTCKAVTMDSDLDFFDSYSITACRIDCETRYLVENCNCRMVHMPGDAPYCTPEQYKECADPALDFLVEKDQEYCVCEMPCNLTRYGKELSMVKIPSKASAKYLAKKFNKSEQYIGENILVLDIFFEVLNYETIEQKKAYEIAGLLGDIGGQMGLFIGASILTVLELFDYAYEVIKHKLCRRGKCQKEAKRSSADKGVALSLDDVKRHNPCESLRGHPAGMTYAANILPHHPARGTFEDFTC
In words: Whole-cell patch clamp, acid-induced hASIC1a currents in stable CHO-K1 cells. The assay is classed as cell-based. The protocol: Electrophysiological Experiments. The inward cellular ASIC1a current was recorded from a single cell using standard whole-cell recording techniques by a patch-clamp amplifier (Axon 200B; Axon Instruments). Membrane currents were sampled and analyzed using a Digidata 1320A interface and a personal computer with Clampex and Clampfit software (Version 9.0.1; Axon Instruments). For a typical experiment, the extracellular fluid (ECF) used contained 150 mM NaCl, 5 mM KCl, 10 mM HEPES, 10 mM D-glucose, 2 mM CaCl2, and 1.0 mM MgCl2, with the osmotic pressure in the range of 320-335 mOsm, and pH 7.4 adjusted with 5 M NaOH. Patch electrodes (4-6 MΩ) contained 30 mM NaCl, 120 mM KCl, 0.5 mM CaCl2, 1 mM MgCl2, 10 mM HEPES, 2 mM MgATP, and 5 mM EGTA (pH 7.2 adjusted with 5 M KOH) at 300 mOsm. The ASIC1a activating ECF is identical to the normal ECF, except that MES was used to replace HEPES to maintain the ECF at pH 6.0. A coverslip with discretely distributed individual CHO-ASIC1a stable cells (6H7) on the surface was placed into a recording chamber under a constant perfusion (~2-3 mL/min) generated by an ALA 8 channel perfusion system (ALA Scientific Instruments Inc.) mounted on an inverted microscope. After achieving the break-in (whole-cell) configuration, the cell was voltage clamped at a holding potential of −70 mV. The normal ECF (pH 7.4) was first perfused onto the patched cell, and then, the activating ECF of pH 6.0 was rapidly applied to elicit a maximum inward ASIC1a current as control current. When testing the inhibition effect of the antibody, ECFs of pH 7.4 containing different concentrations of ASC06-IgG1 were perfused from low to high concentration into the recording chamber for 10-15 min. To measure the inhibition of the current, the activating ECFs of pH 6.0 containing the corresponding concentrations of the testing antibodies were applied to the same patched 6H7 cell to generate the inward currents that can be normalized to the control current of the same cell. […] Data acquired from four to five cells were used for statistical calculation of inhibition effects.
The function of ASC06-IgG1 was characterized using electrophysiology approach. The effect of ASC06-IgG1 antibody on the acid-induced, hASIC1a-mediated electrical current in cells was analyzed. PcTx1 was used as a positive control. […] The amplitudes of the hASIC1a-mediated inward currents of the stable cells were recorded and quantitated in the absence and presence of ASC06-IgG1, with venom peptide PcTx1 (100 nM) used as positive control. […] Unlike the sustained inhibition with the antibody after washing, the inhibition with PcTx1 could be readily washed out within 5 minutes (FIG. 5C).
(In general: Patch clamp records ionic current or voltage across a cell membrane.)

Procedure for ΔhASIC1a: Surface plasmon resonance (SPR) and flow cytometry were used to study the interaction between the monoclonal antibody and hASIC1a. SPR-binding studies were performed on a Biacore T200 (GE Healthcare). The anti-Flag antibody was amine coupled to the surface of a biosensor chip CM5 series S (GE Healthcare). The recombinant Flag-tagged ΔhASIC1a was then immobilized onto the chip surface. […] The kinetics of binding/dissociation was measured as a change in the SPR signal resonance units. Apparent binding affinities were calculated using the Biacore T200 evaluation software with a single-cycle kinetic model.

B1: ASC06-IgG1: ASC06 antibody converted into a full length IgG1 form (antibody, V domains shown)
VH: QVQLQQSGGGLVQPGGSLRLSCAASGFTFSSYAMSWVRQAPGKGLEWVSAISGSGGSTYYADSVKGRFTISRDNSKNTLYLQMNSLRAEDTAVYYCAKDSFYGYSKGDWGQGTLVTVSS
VL: QSALTQPASVSGSPGQSITISCTGTSSDVGAYNYVSWYQQQPGKAPKLMIYGVSNRPSGVSNRFSGSKSGNAASLTISGLQAEDEADYYCSSYTSSSTYVFGTGTKLTVLG
For the molecule B1, the Kd in the assay with ΔhASIC1a worked out at 7.9 nM. Besides, the “duration of sustained inhibition during washout” value with hASIC1a (after washing) is 30 min. Moreover, the “maximal inhibition of the acid (pH 6.0)-induced currents” value with hASIC1a (dose-dependent) is recorded as “up to 80%”.
